# Laboratory results published in the DeepSol protein solubility set.
# Test: soluble on expression in E. coli; label from the status in PepcDB or PDB records
row,Sequence,soluble on expression in E. coli
1,MENISDLWNSALKELEKKVSKPSYETWLKSTTAHNLKKDVLTITAPNEFARDWLESHYSELISETLYDLTGAKLAIRFIIPQSQAEEDIDLPPVKPNPAQDDSAHLPQSMLNPKYTFDTFVIGSGNRFAHAASLAVAEAPAKAYNPLFIYGGVGLGKTHLMHAIGHYVIEHNPNAKVVYLSSEKFTNEFINSIRDNKAVDFRNKYRNVDVLLIDDIQFLAGKEQTQEEFFHTFNALHEESKQIVISSDRPPKEIPTLEDRLRSRFEWGLITDITPPDLETRIAILRKKAKAEGLDIPNEVMLYIANQIDSNIRELEGALIRVVAYSSLINKDINADLAAEALKDIIPNSKPKIISIYDIQKAVGDVYQVKLEDFKAKKRTKSVAFPRQIAMYLSRELTDSSLPKIGEEFGGRDHTTVIHAHEKISKLLKTDTQLQKQVEEINGILKLEHHHHHH,not soluble
2,MENIVNRTYTRIGQLLKQDISQGIYSIGDKLPTEREISEKFGVSRTIVREAMVMLEVEKLVEVKKGSGVYVVRTPESIHMEHSDLPDVGPFELLQARQLLESSIAEFAALQATKKDILNLKQILNREKELLTQNQDDYSADKDFHLALAEITQNDVLVKLQEQLWQYRFNSAMWAQLHSRILQNDYHHLWIEDHQTILSAIQKKNANEARKAMWQHLENVKVKLFELSDVEDPHFDGYLFNTNPVVVGI,not soluble
3,MENKEISYEIIDFSGETNVQFRTSVDPGSYIPTHWHRAIEIIYMQEGSLDVIVESESFTIYKGDCILVNGNVLHSTKCTAPNTAILLQIPLNFMEKYIPNLGQLIFLWDYRTEDPVKKTKLMMLKTTLEQLQVINDIQPDGYLLRFNSLIFELMFQLYHNFSVQVFPQDINHKKKEMDRLDP,not soluble
4,MENPDSAFLLFRNAPRLPLATMHTPLCGDSHQPDFAFRKPARDALLRPWNGRNHRCGLQDGREICQGQLPAHQKSYWSDCAALPRLFRAYGGAVVRGFLIVGNKAFTQPFSLNDLPGAGRMDVLCRCTSQALFISHGIRRDVEVYLLLLGPPSPPKSILIKGDEVRRMSPDERNVAGHIKKALAVECGKSWKKVHSGVYVSRKGLEELIEELSEKYSIIYLKEDGVDISNAQLPPNPLFVIGDHEGLTEEQEKVVERYAALKLSLSPLSLLAEQCVVIAHHHLDRLQF,not soluble
5,MENSDDIRLIVKIAQLYYEQDMTQAQIARELGIYRTTISRLLKRGRDQGMVTIAINYDYNENLWLEQQLKQKFGLKDVVVVSGNDEDEETQLAMMGLHGAQLLDRLLEPGDIVGFSWGRAVSALVENLPQAGQSRQLICVPIIGGPSGKLESRYHVNTLTYSAAAKLKGESHLADFPALLDNPLIRNGIMQSQHFKTISAYWDNLDIALVGIGSPAIRDGANWHAFYGGEESDDLNARQVAGDICSRFFDIHGAMVETNMSEKTLSIEMNKLKQARYSIGIAMSEEKYSGIIGALRGKYINCLVTNSSTAELLLK,soluble
6,MEPPKPEYAPTAHSRYNSQYFYWLFLDLFHLEPSMKLFPSLATLTLCSLMSAPLLAAEQAPELTGCAAKRQAIMNQIEQAKAHGNSNQQAGLERALSEVTAHCTDASLKKERENKVLEAKHEVSRRQADLEKAMKKGDSEKINKRKDKLAESRKELQQALDELDKLEHHHHHH,not soluble
7,MEQLRGLYPPLAAYDSGWLDTGDGHRIYWELSGNPNGKPAVFIHGGPGGGISPHHRQLFDPERYKVLLFDQRGCGRSRPHASLDNNTTWHLVADIERLREMAGVEQWLVFGGSWGSTLALAYAQTHPERVSEMVLRGIFTLRKQRLHWYYQDGASRFFPEKWERVLSILSDDERKDVIAAYRQRLTSADPQVQLEAAKLWSVWEGETVTLLPSRESASFGEDDFALAFARIENHYFTHLGFLESDDQLLRNVPLIRHIPAVIVHGRYDMACQVQNAWDLAKAWPEAELHIVEGAGHSYDEPGILHQLMIATDRFAGK,soluble
8,MEQPLMPPAPPSYVASQSQAITTQPGASIPMPPGTIVIEALPPVEGIPGGLEYLAYLDTIMVHQFLEPIEIRTGWETKNKYAIKKICYQKRQCCGAERAFVMHIVDNFNKEVLTVKRERHCCGCCCWLGSTNKSTIESPSMGLLGTVLLGHGCTNSHCNVLDKDEELLFLVDGQGCCTYCCCDDKAFTIKTPDTYKRIGAITKKWGGIIREAYTDADTFAVTFPADLDVKAKALLLATTILQSLRVVVEVEKLEIEIFICCALFMK,not soluble
9,MERDTVVKEVVEALKIFSRDIRTQIDEMGSQLRAEIQDTANQLRAEIQDTANQLRAEMQETANQLRAEMQETANQLRAEMQQFRAEVNERFDRLEQKFAGLRVELTETQETVHFLASKTIQHEKKLHHLAKQLESIR,not soluble
10,MERMSDSADKPIDNDAEGVWSPDIEQSFQEALAIYPPCGRRKIILSDEGKMYGRNELIARYIKLRTGKTRTRKQVSSHIQVLARRKSRDFHSKLKDQTAKDKALQHMAAMSSAQIVSATAIHNKLGLPGIPRPTFPGGPGFWPGMIQTGQPGSSQDVKPFVQQAYPIQPAVTAPIPGFEPTSAPAPSVPAWQGRSIGTTKLRLVEFSAFLEQQRDPDSYNKHLFVHIGHANHSYSDPLLESVDIRQIYDKFPEKKGGLKELFGKGPQNAFFLVKFWADLNCNIQDDAGAFYGVSSQYESSENMTVTCSTKVCSFGKQVVEKVETEYARFENGRFVYRINRSPMCEYMINFIHKLKHLPEKYMMNSVLENFTILLVVTNRDTQETLLCMACVFEVSNSEHGAQHHIYRLVKD,soluble
11,MERRSTDLLVLGAGVAGVYAALAAEERGARVLLVSKDPLPAGSTPWAQGGVAFPVGEEDLEAHLRDTLVAGRGLVEEGVARSILEEAPRHLERLRAFGLPFHPEPTREGGHSRARVFHLGGDRSGLLLLEGLLKRLSTPVVPAQALSLLVSGNRVAGALLWGPGGLWEVRAGAVLLATGGFGRLFPVTTNPHGATGDGMALAWRAGAVLRDLEFVQFHPTALPNGALVSEACRGEGALLLNAHGERFMPRYDPLAELAPRDVVARAVFRERERTGGVYLDLRPIPHLEERFPTVVAQARALGLDPLRAPLPVAPAAHYAMGGVRTDAFGHTGIPGLFAAGEVASTGFHGANRLASNSLLEGLVVGWRAALRALEDLAFPPRATPLPALAAPPEAVASLREEAGEALGVVRRKETLLAFLRRAEAVPLEEVEQASRDRLEAGSLLLLMRLLARAALAREESRGAHFREDFPLEDRPRHSLFQGWRLGFLPVGVE,soluble
12,MERVSITERPDWRDKATEYGFNFHTMYGEPYWCEDAYYKLTLAQVEKLEDVTAELHQMCLKVVERVIASDELMTKFRIPKHTWGFVRQSWQTQQPSLYSRLDLAWDGIGEPKLLENNADTPTSLYEAAFFQWIWLEDQINAGNLPEGSDQFNSLQEKLIERFAELREQYGFQLLHLTCCRDTVEDRGTIQYLQDCAAEAEIATEFLYIDDIGLGEKGQFTDLQDQVIANLFKLYPWEFMLREMFSTKLEDAGVRWLEPAWKSIISNKALLPLLWEMFPDHPNLLPAYFAEDEHPPMDKYVVKPIFSREGANVSIIENGKTIESVEGPYGEEGMIVQQFYPLPKFGDSYTLIGSWLINDQPAGIGIREDRALITQDLSRFYPHIFVEG,not soluble
13,MESIVDKQAVKHFLLQLQDKICQQLEATDGQAQFIEDAWQREPGEKLGGGGRTRVMREGAVFEQGGVNFSHVFGEQMPASATAHRPELAGRRFEAMGVSLVMHPKNPYVPTSHANVRFFIAEKEGEAPIWWFGGGFDLTPFYPFVEDGQHWHQTAKNICAPFGSEIYNEHKAWCDRYFYLPHRNETRGIGGLFFDDLNEWSFEQCFAYMQAVGEGYTQAYVPIVEKRKNTPFTERERQFQLYRRGRYVEFNLVLDRGTLFGLQTGGRTESILMSMPPLARWEYAYQPQAGTPEAKLSEFLVPREW,not soluble
14,MESMLLPKYFDILIVDDIPEHIDVAVQVLRDSNFKIRVATDGNTALKLIYQQKPDLILLDIYMPEMDGFELCRLIKNTPDLKNIPVIFLTSFSDEESIRKGFESGGQDYVVKPFNASELLSRVKTHLMLKCQAESLKEANKELDSFCYTVAHDLKSPLLSLNKLVELLVSDHLNQLDSAGKELVYNIREKSSEIIHTVDRLLEFSKMCEMQVNFEIIDLNELFTEVCNELKSLEPQRDIRIHIQPLPKVYGDRLLMRLLISNILSNAFKYTRNRQTAIIEIQSSEDGNEYVFFVKDNGAGFDMKYSSRLFGVFQRLHSKDEFEGSGVGLAICQRILKRHNGRAWMTGEIDKGATFFFTLPKFE,soluble
15,MESPSALPSLDQLLKEQGADQTLTDLILAILDRCGKIASALQGTSVDKVGSVNEFGDEQLTVDVIAENLLRSWAQSSEGSAVRAVCSEEDIHLQECHKNGEFILCWDPLDGSSIIDCNWAVGSIVSIWRIGHHGVQWQGADTLIQKTGRQQVASLIVVYGPRTTGVVAVNVDAGGIVKEGTALDLEMKDNGKFICRGKPIIKPQAKIFSPANLRAAQDLPAYKQLIEFWMEKRYTLRYTGGLVPDVYQIFVKQQGVFCNPASKAAPAKLRMCFEVLAIALVVEAAGGRTSNGQKSLLDVAIEHMDHRSALCCGSADEIKRMEETFAALSG,soluble
16,MESQVRQNFHQDCEAGLNRTVNLKFHSSYVYLSMASYFNRDDVALSNFAKFFRERSEEEKEHAEKLIEYQNQRGGRVFLQSVEKPERDDWANGLEALQTALKLQKSVNQALLDLHAVAADKSDPHMTDFLESPYLSESVETIKKLGDHITSLKKLWSSHPGMAEYLFNKHTLG,soluble
17,MESVKCFDMITAFFDLSDSVHVVRKNGGLAFGKTWLGNFFVLVREVKILRATTEKFSLVNLRKLEPHSGQFRNQIREESAYRHPFLRIVVKVILAKRLRPLPYLTSKSK,not soluble
18,MESYLRLSEVDKQILHSHALMLDGLGNFFGSTHEVILHSLENLESSAIKVINGHFSNRKEGAPITDMALKMLSQVESEHDYAVKPYYNKNQKGVILKSSTIPVIGENDRIIGLICINMHLEMPLIDYLQDLLPSGQQNDMSQELKNSEHFSDNIDELITTSLTKVKQAVESDPNVSHLNQNKEIVIRLYDQGIFNLKDSVIKIADRLGISKNTIYLHIRNHKKEEA,not soluble
19,METKDLIVIGGGINGAGIAADAAGRGLSVLMLEAQDLACATSSASSKLIHGGLRYLEHYEFRLVSEALAEREVLLKMAPHIAFPMRFRLPHRPHLRPAWMIRIGLFMYDHLGKRTSLPGSTGVRFGADSVLKPEIVRGFEYSDCWVDDARLVLANAQMVVRKGGEVLTRTRATAARRENGLWIVEAEDIDTGKKYVWQARGLVNATGPWVKQFFDEGMHLPSPYGIRLIKGSHIVVPRVHNQKQAYILQNEDKRIVFVIPWMEEFSIIGTTDVEYKGDPKAVKIEESEINYLLKVYNAHFQKQLGRDDIVWTYSGVRPLCDDESDSPQAITRDYTLDIHDENGKAPLLSVFGGKLTTYRKLAEHAMEKLASYYPGIGPAWTKTCVLPGGDIDGSREDYAAKLRRRYPFLTESLARHYSRTYGSNTEWILGEATSLLDLGEDFGHEFYEAELKYLVDHEWVRRTEDAIWRRTKEGMWLTAEQQSRITQWLAAYVEKHQLSMAS,not soluble
20,METPQDSRQSIQKPPSPAAEEDKEEQPGGNAVVSGAPEERIDKKELVLNWLAQGEFDQGEGAQGEVAGGEQAQEEPAPLSPAQEATGGEEEGENKEGEMEGRHAGDGASSSEDDSILEEGGENIDQQPPQQEAASPDSIRNPHVLNRLAQLRYRRTRFTHFQLHDLERLFQETRYPSLRARRDLARWMGVDECDVQNWFRMRRALFQRNRRVLMFCELPPLPQSDSP,soluble
